Holding throughout (assay): cell-based or functional assay
Test [1] addresses HIV-1 92RW026 envelope glycoprotein (Env) (HIV-1).
In test [2] the target is HIV-1 Env of isolate MGRM-D-026 (clade D) (HIV-1).
The target in test [3] is HIV-1 IAVI-C18 envelope protein (Env) on pseudovirus (HIV-1).
For test [4], the target named is HIV-1 MGRM-A-014 envelope glycoprotein (Env) (HIV-1).
The target in test [5] is HIV-1 MGRM-C-002 Env (HIV-1).
Test [6] has as its target HIV-1 MGRM-C-005 Env (HIV-1).
For test [7], the target named is HIV-1 MGRM-F1-008 Env (pseudovirus) (HIV-1).
In test [8] the target is HIV-1 VLGCA1 envelope glycoprotein (Env) on pseudovirus (HIV-1).
Test [9] deals with HIV-1 92TH021 envelope protein (Env) on pseudotyped virus (HIV-1 isolate 92TH021).
Test [10] has as its target HIV-1 IAVI_C22 envelope protein (Env) on pseudotyped virus (HIV-1 isolate IAVI C22).
Test [11] deals with HIV-1 Env of isolate MG RM-AG-009 (HIV-1).
The target in test [12] is HIV-1 Env of isolate MG RM-AG-012 (HIV-1).
For test [13], the target named is HIV-1 Env of isolate MGRM-C-010 (pseudovirus) (HIV-1 isolate MGRM-C-010, subtype C).
In test [14] the target is HIV-1 Env of isolate MGRM-F1-015 (HIV-1).
The target of test [15] is HIV-1 Env of isolate MGRM-F1-023 (HIV-1).
Test [16] has as its target HIV-1 MGRM-Chronic-B-003 Env (pseudovirus) (HIV-1).
For test [17], the target named is HIV-1 QH0692.42 Env (pseudovirus) (HIV-1).
The target in test [18] is HIV-1 APV13 envelope glycoprotein (Env) on pseudovirus (HIV-1).
Test [19] addresses HIV-1 APV17 envelope glycoprotein (Env) on pseudovirus (HIV-1).
The target in test [20] is HIV-1 Env of isolate 92UG005 (subtype D) (HIV-1).
Test [21] concerns the target HIV-1 Env of isolate MG RM-AG-008 (HIV-1).
For test [22], the target named is HIV-1 JRFL envelope glycoprotein (Env) on pseudovirus (HIV-1).
The target of test [23] is HIV-1 MGRM-D-001 envelope glycoprotein (Env) on pseudovirus (HIV-1).
Test [24] has as its target HIV-1 Env of isolate 92UG001 (HIV-1).
Test [25] has as its target HIV-1 Env of isolate 92WR020 (HIV-1).
Test [26] deals with HIV-1 Env of isolate 94UG103 (HIV-1).
In test [27] the target is HIV-1 Env of isolate MGRM-D-016 (HIV-1).
Test [28] concerns the target HIV-1 JR-CSF Env D185A (HIV-1 (isolate JR-CSF)) (UniProt P20871).
Test [29] addresses HIV-1 JR-CSF Env N478A (HIV-1 (isolate JR-CSF)) (UniProt P20871).
For test [30], the target named is HIV-1 JR-CSF Env R476A (HIV-1 (isolate JR-CSF)) (UniProt P20871).
For test [31], the target named is HIV-1 Env of isolate MGRM-G-001 (subtype G) (HIV-1).
In test [32] the target is HIV-1 envelope glycoprotein (Env) of isolate MGRM-C-019, on pseudovirus (HIV-1).
The target in test [33] is HIV-1 envelope glycoprotein (Env) of isolate MGRM-C-025, on pseudovirus (HIV-1).

Sequence of 5329_C19 (PGT-136) (antibody) (VH): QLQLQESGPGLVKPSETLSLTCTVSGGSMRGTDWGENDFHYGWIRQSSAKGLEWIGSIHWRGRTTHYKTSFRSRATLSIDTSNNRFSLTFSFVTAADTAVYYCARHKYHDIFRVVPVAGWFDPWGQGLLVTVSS
Sequence of 5329_C19 (PGT-136) (antibody) (VL): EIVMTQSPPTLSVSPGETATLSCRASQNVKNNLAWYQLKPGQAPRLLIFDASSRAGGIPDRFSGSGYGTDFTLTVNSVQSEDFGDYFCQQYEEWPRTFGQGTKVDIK
Sequence of 1443_C16 (PG16) (TCN-116) (antibody) (VH): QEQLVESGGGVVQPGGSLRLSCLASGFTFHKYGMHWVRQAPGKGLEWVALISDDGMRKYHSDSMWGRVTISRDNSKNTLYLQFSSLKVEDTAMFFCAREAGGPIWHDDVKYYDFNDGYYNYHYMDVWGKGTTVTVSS
Sequence of 1443_C16 (PG16) (TCN-116) (antibody) (VL): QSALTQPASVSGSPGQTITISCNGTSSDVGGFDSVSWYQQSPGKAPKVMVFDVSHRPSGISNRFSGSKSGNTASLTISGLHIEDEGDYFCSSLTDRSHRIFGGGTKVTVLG
Sequence of 5345_I01 (PGT-137) (antibody) (VH): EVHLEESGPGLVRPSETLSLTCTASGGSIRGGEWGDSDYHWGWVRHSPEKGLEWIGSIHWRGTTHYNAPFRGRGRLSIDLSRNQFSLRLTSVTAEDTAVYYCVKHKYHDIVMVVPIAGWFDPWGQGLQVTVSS
Sequence of 5345_I01 (PGT-137) (antibody) (VL): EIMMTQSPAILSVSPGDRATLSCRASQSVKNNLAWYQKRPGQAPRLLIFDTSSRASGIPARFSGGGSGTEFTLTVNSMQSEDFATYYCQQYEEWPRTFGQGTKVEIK

Turning to 2F5 (antibody), the IC50 (µg/ml), pseudovirus neutralization came to 8.63 µg/mL in test [1]; 4.37 µg/mL in test [2]; 1.43 µg/mL in [4]; 1.61 µg/mL in test [7]; 3.9 µg/mL in [8]. Also, the neutralization IC50 in [3] is above 50 µg/mL. Besides, the IC50 was 44.7 µg/mL in [5] and above 50 µg/mL in test [6].

Regarding 2G12 (antibody), the IC50 (µg/ml), pseudovirus neutralization in test [1] is 17.2 µg/mL; in test [2], above 50 µg/mL; in test [4], above 50 µg/mL; in [7], above 50 µg/mL; in test [8], above 50 µg/mL. In test [3], this substance showed a neutralization IC50 above 50 µg/mL. The IC50 in test [5] and in [6] was above 50 µg/mL each time.

Consider 4E10 (antibody), for which the IC50 (µg/ml), pseudovirus neutralization turned out to be 12.9 µg/mL in test [1]; 2.95 µg/mL in [2]; 1.74 µg/mL in test [4]; 2.75 µg/mL in test [7]; 4.58 µg/mL in test [8]. Further, the neutralization IC50 in test [3] is above 50 µg/mL. Moreover, the IC50 in test [5] was determined as 18.2 µg/mL; in test [6], 16.4 µg/mL.

On to 1443_C16 (PG16) (TCN-116) (antibody), for which the IC50 (µg/ml), pseudovirus neutralization in test [1] is 0.03 µg/mL; in test [2], above 50 µg/mL; in test [4], 20.3 µg/mL; in [7], above 50 µg/mL; in test [8], 0.18 µg/mL. Further, the IC50, pseudovirus neutralization, 1 hour Virus/Ab Incubation came out at 0.136 µg/mL in [9] and 0.114 µg/mL in [10]. Also, the IC50, pseudovirus neutralization, 18 hour Virus/Ab Incubation in test [9] stood at 0.0435 µg/mL; in test [10], 0.106 µg/mL. The neutralization IC50 in test [3] is 0.0067 µg/mL. Besides, the IC50 in test [5] turned out to be 28.3 µg/mL; in [6], 2.55 µg/mL.

1495_C14 (PGC14) (antibody): the IC50 (µg/ml), pseudovirus neutralization in [1], in test [2], in [4], in [7] and in test [8] was above 50 µg/mL throughout. Besides, the IC50, pseudovirus neutralization, 1 hour Virus/Ab Incubation in test [9] and in test [10] was above 50 µg/mL in each case. Further, the values for the IC50, pseudovirus neutralization, 18 hour Virus/Ab Incubation in test [9] and in test [10] were above 50 µg/mL and 13.4 µg/mL, respectively. Further, in test [3], the neutralization IC50 is above 50 µg/mL. Also, the concentration for half-maximal inhibition (IC50) in test [5] and in [6] was above 50 µg/mL each time.

In the case of 4838_L06 (PGT-121) (antibody), the neutralization IC50 in test [11] was 0.08 µg/mL; in [12] it was above 50 µg/mL. The same substance came in with an IC50 (µg/mL) neutralization in test [13] above 50 µg/mL. For the same substance, the IC50 in test [14] is 28.4 µg/mL; in [15], 0.097 µg/mL. Moreover, the IC50, pseudovirus neutralization was found to be 0.011 µg/mL in test [16] and 0.823 µg/mL in test [17].

In the case of 4877_D15 (PGT-122) (antibody), the IC50 (ug/ml), neutralizing activity in test [18] came out at 0.992 µg/mL; in [19], 0.522 µg/mL; in test [22] it was 0.0471 µg/mL; in [23], 0.867 µg/mL. The substance also yielded an IC50 (µg/mL), pseudovirus neutralization in [20] above 50 µg/mL. The neutralization IC50 is above 50 µg/mL in test [21], 0.128 µg/mL in [11] and above 50 µg/mL in [12]. Moreover, the IC50 (µg/mL) neutralization in [13] was above 50 µg/mL. The figures for the IC50 in test [14] and in test [15] were 31.4 µg/mL and 0.154 µg/mL, respectively. In addition, the IC50, pseudovirus neutralization in [16] was determined as 0.008 µg/mL; in test [17], 0.493 µg/mL.

Regarding 5114_A19 (PGT-128) (antibody), the IC50 in test [24] and in [27] was above 50 µg/mL in each case. In addition, the neutralization IC50 turned out to be 0.005 µg/mL in test [25] and 0.011 µg/mL in [26]. Also, the Fold IC50 increase relative to wild-type stood at 1.5 fold in test [28], 0.8 fold in [29] and 0.7 fold in [30].

5136_H01 (PGT-131) (antibody): the IC50 in test [24] and in test [27] was above 50 µg/mL throughout. Further, the neutralization IC50 turned out to be 0.168 µg/mL in [25] and 1.1 µg/mL in [26]. Also, the figures for the Fold IC50 increase relative to wild-type in test [28], in test [29] and in test [30] were 0.7 fold, 1 fold and 1 fold, respectively.

In the case of 5145_B14 (PGT-127) (antibody), the IC50 (µg/mL), pseudovirus neutralization in test [20] amounted to 1.11 µg/mL. In addition, the neutralization IC50 is above 50 µg/mL in [21], 0.059 µg/mL in test [11] and above 50 µg/mL in test [12]. Further, the IC50 (µg/mL) neutralization in [13] was above 50 µg/mL. The IC50 in test [14] is above 50 µg/mL; in test [15] it was 0.119 µg/mL. The Fold IC50 increase relative to wild-type came to 2 fold in test [28], 1.2 fold in test [29] and 1.2 fold in [30]. Besides, the IC50, pseudovirus neutralization in [16] came out at 0.12 µg/mL; in test [17], 0.129 µg/mL.

Regarding 5147_N06 (PGT-130) (antibody), the IC50 (ug/ml), neutralizing activity is 0.0345 µg/mL in test [18], above 10 µg/mL in test [19], 0.0346 µg/mL in [22] and above 10 µg/mL in [23]. Also, the IC50 in test [24] and in [27] was above 50 µg/mL throughout. Further, the neutralization IC50 in test [25] was 0.039 µg/mL; in [26], 1.4 µg/mL. Further, the Fold IC50 increase relative to wild-type came to 0.9 fold in [28], 0.8 fold in [29] and 1.3 fold in test [30].

Turning to 5329_C19 (PGT-136) (antibody), the IC50 in [24] and in test [27] was above 50 µg/mL throughout. The results for the neutralization IC50 in test [25] and in test [26] were 2.33 µg/mL and above 50 µg/mL, respectively.

Regarding 5343_B08 (PGT-135) (antibody), the half-inhibitory concentration (IC50) in test [24] and in [27] was above 50 µg/mL throughout. The neutralization IC50 in [25] was 0.067 µg/mL; in [26], above 50 µg/mL. Besides, the Fold IC50 increase relative to wild-type in [28] stood at 1.3 fold; in test [29] it was 0.7 fold; in test [30] it was 0.8 fold.

Turning to 5345_I01 (PGT-137) (antibody), the half-inhibitory concentration (IC50) in [24] and in [27] was above 50 µg/mL in each case. The neutralization IC50 in test [25] is 0.005 µg/mL; in test [26], above 50 µg/mL.

For the substance VRC01 (antibody), the IC50, pseudovirus neutralization was found to be 0.452 µg/mL in test [27]; 0.387 µg/mL in [14]; 0.392 µg/mL in [15]; 1.13 µg/mL in test [32]; 2.36 µg/mL in [33]. The same substance registered a neutralization IC50 in test [31] of 0.0371 µg/mL.

Turning to b12 (antibody), the IC50 (µg/ml), pseudovirus neutralization was above 50 µg/mL in test [1]; 1.55 µg/mL in test [2]; above 50 µg/mL in test [4]; above 50 µg/mL in test [7]; above 50 µg/mL in [8]. Also, the neutralization IC50 in test [3] is above 50 µg/mL. Also, the IC50 in test [5] was above 50 µg/mL; in [6], 2.66 µg/mL.

The IC50 is the midpoint of a concentration-inhibition curve.

For the origin of these results see patent publication US20200024330A1.
